Data set [1] relates to T1, p70 heparanase (about 70 kDa form of recombinant human heparanase expressed in mammalian cells).
T1 sequence: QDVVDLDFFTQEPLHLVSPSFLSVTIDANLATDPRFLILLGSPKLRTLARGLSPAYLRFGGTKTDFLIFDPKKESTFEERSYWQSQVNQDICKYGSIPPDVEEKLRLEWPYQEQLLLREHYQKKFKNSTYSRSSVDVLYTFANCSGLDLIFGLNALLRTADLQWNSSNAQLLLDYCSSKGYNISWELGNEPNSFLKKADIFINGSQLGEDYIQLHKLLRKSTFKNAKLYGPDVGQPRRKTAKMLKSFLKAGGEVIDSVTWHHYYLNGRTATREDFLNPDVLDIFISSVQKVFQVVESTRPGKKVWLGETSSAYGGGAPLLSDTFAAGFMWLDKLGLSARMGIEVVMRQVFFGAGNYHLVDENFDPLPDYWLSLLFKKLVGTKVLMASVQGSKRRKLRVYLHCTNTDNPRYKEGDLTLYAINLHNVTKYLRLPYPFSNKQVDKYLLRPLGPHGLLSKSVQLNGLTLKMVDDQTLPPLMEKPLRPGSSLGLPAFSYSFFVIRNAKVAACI

Data set [2] deals with T2, p70-bac heparanase (human recombinant heparanase secreted by baculovirus infected insect cells).
T2 sequence: T1 sequence

On to trypsin (Cat. No. T-8642, Sigma USA), for which, in data set [1], the “heparanase activity (DMB assay) after trypsin digestion of CHO conditioned medium” value is “recombinant heparanase processing and activation occurred when mild trypsin digestion was employed on a crude conditioned medium of CHO cells that secrete mammalian p70 heparanase (FIG. 27). Activation was dose dependent”. Also, the “heparanase activity (DMB assay) after trypsin digestion” value in data set [2] is listed as “reaching maximal activation of five-fold already at 15 units trypsin”.
“cathepsin L (Cat. No. 219412, Calbiochem)”: the “heparanase activity (DMB assay) and Western blot before and after cathepsin L” value in data set [2] was “demonstrates proteolytic processing of p70-bac heparanase by cathepsin L”.

For the origin of these results see patent US20030068806A1.
